Experimental data: article PMC7807878, “Development of an engineered peptide antagonist against periostin to overcome doxorubicin resistance in breast cancer” (BMC Cancer, 2021)

Biological target: T1, recombinant PN (rPN) (UniProt Q15063 22-836)
T1 construct: periostin (PN), recombinant, bought; also called periostin; source: bought: BioVendor (RD172045025)
T1 sequence (looked up): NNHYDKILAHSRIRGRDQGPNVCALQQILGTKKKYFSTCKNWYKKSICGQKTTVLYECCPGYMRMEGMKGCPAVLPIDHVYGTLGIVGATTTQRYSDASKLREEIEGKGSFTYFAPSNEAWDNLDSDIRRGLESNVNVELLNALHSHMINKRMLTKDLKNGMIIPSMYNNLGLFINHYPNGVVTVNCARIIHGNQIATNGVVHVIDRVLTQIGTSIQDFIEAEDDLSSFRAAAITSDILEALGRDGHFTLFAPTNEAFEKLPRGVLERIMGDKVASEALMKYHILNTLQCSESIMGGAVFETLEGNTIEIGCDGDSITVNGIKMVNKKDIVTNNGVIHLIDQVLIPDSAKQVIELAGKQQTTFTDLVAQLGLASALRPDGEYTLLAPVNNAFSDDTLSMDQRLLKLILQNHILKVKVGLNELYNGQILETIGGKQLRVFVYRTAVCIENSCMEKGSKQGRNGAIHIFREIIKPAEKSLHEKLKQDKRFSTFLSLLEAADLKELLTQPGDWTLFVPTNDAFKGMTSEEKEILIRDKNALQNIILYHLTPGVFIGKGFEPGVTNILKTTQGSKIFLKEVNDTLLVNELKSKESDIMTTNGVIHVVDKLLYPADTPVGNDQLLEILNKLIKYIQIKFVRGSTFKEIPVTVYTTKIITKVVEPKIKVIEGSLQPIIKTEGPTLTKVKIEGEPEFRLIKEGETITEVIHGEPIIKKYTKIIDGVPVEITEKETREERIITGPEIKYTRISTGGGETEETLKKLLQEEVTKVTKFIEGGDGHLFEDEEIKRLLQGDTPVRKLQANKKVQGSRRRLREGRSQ
Experiment: ITC; MicroCal PEAQ-ITC; 700 nM rPN (or BSA) and 100 nM plain anti-PN peptide in 50 mM Tris, 150 mM NaCl, pH 7.5, in syringe and cell compartments
Conditions: both partners purified

- Kd: 1 pM
B1: plain anti-PN peptide (peptide)
peptide: TFATHGKHWAAP
notes: The methods mention C-terminal amidation after describing the FITC-labelled form; it is not clear whether the plain peptide is amidated too; also called candidate anti-PN peptide; source: synthetic peptide (ordered from Syn Peptide company, Shanghai)
